Measurements from patent publication US20190002511A1.
Like-named read-outs stand apart in the source and are kept apart here.

Key:
[1] = target: human α-thrombin (recombinant) (human), P00734; experiment: cell-based or functional assay
[2] = target: human α-thrombin (recombinant) (human), P00734; experiment: cell-based or functional assay; remark: listed apart in the source
[3] = target: human α-thrombin (recombinant) (human), P00734; experiment: comparison of Ki values
[4] = target: human α-thrombin (recombinant) (human), P00734; experiment: thrombin amidolytic assay with S2238, Morrison tight-binding fit
[5] = target: human α-thrombin (recombinant) (human), P00734; experiment: thrombin amidolytic assay with S2238; column headed Affinity (nM)
[6] = target: human α-thrombin (recombinant) (human), P00734; experiment: assay not named; the printed µM is most likely a misprint of pM (compare Table 5 and paragraph 9)

B1: ultravariegin (peptide)
peptide: SDEAVRAIPKMYSTAPPGDFEEIPDDAIEE
modifications: not checked
With B1 as the binder, how does the IC50, inhibition of thrombin amidolytic activity [1] read?
The IC50, inhibition of thrombin amidolytic activity was 0.26 nM.

And the IC50, inhibition of thrombin amidolytic activity [2]?
Its IC50, inhibition of thrombin amidolytic activity is 0.4 nM.

And the fold more potent than variegin (Ki) [3]?
Its fold more potent than variegin (Ki) is greater than 70 fold.

What about the fold stronger affinity than avathrin and variegin [3] of the same binder?
Its fold stronger affinity than avathrin and variegin is greater than 200 fold.

And the Ki [4]?
Its Ki is 0.0044 nM.

And the Ki [5]?
Its Ki is 0.001 nM.

And the Ki [6]?
Its Ki is 1500 nM.
